T1: EsCas13d, nuclease-dead (Eubacterium siraeum, UniProt B0MS50, R295A;H300A;R849A;H854A)
T1 sequence: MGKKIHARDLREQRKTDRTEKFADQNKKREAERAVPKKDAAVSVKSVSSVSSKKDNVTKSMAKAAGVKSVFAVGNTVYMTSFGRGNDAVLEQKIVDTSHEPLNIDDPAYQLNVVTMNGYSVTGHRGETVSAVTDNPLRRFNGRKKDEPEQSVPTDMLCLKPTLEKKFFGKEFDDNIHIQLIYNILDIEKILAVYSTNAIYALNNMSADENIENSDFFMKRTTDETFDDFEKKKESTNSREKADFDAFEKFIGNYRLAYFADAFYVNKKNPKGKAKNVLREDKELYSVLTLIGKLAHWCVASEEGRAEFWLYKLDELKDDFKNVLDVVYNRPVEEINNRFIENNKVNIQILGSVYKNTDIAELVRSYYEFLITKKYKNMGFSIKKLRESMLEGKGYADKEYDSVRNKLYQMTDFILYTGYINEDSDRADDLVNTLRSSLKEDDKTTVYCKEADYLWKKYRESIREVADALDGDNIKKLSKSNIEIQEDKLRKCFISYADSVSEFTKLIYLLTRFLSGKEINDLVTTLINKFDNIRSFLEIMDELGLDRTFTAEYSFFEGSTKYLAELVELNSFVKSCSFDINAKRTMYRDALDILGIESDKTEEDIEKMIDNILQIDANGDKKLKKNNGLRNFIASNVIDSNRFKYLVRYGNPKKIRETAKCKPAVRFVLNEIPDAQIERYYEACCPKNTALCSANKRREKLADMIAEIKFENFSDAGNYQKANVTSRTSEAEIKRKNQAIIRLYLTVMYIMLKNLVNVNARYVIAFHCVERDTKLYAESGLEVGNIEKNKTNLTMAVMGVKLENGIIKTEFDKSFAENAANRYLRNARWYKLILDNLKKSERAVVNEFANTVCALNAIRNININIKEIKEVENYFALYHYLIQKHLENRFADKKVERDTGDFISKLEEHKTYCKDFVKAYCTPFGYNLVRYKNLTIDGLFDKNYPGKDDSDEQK

B1: target 1 insA 3' of 15,insU 3' of 2 (mixed)
RNA 1: CACCCGUGCAAAAAUGCAGGGGUCUAAAACUGAGCGGAUAACCUCUCUAUGG
RNA 2: GGGAAUGGAUCCACAUCUACGAAUUCGUACCAUAGAGAAGGUUAUCCGCUCUACCGAGAUCGGAAGAGCACACGU
B2: target 1 insU 3' of 12,insA 3' of 2 (mixed)
RNA 1: CACCCGUGCAAAAAUGCAGGGGUCUAAAACUGAGCGGAUAACCUCUCUAUGG
RNA 2: GGGAAUGGAUCCACAUCUACGAAUUCGUACCAUAGAGAGGUUUAUCCGCUCAACCGAGAUCGGAAGAGCACACGU
B3: target 1 insC 3' of 10,insC 3' of 3 (mixed)
RNA 1: CACCCGUGCAAAAAUGCAGGGGUCUAAAACUGAGCGGAUAACCUCUCUAUGG
RNA 2: GGGAAUGGAUCCACAUCUACGAAUUCGUACCAUAGAGAGGUUCAUCCGCUCCACCGAGAUCGGAAGAGCACACGU
B4: target 1 complement block 7-9 (mixed)
RNA 1: CACCCGUGCAAAAAUGCAGGGGUCUAAAACUGAGCGGAUAACCUCUCUAUGG
RNA 2: GGGAAUGGAUCCACAUCUACGAAUUCGUACCAUAGAGAGGUUUAGCGCUCACCGAGAUCGGAAGAGCACACGU
B5: target 1 C7U,A16G (mixed)
RNA 1: CACCCGUGCAAAAAUGCAGGGGUCUAAAACUGAGCGGAUAACCUCUCUAUGG
RNA 2: GGGAAUGGAUCCACAUCUACGAAUUCGUACCAUAGGGAGGUUAUUCGCUCACCGAGAUCGGAAGAGCACACGU
B6: target 1 insG 3' of 2,insU 3' of 1 (mixed)
RNA 1: CACCCGUGCAAAAAUGCAGGGGUCUAAAACUGAGCGGAUAACCUCUCUAUGG
RNA 2: GGGAAUGGAUCCACAUCUACGAAUUCGUACCAUAGAGAGGUUAUCCGCUCGAUCCGAGAUCGGAAGAGCACACGU
B7: target 1 insA 3' of 10,insG 3' of 9 (mixed)
RNA 1: CACCCGUGCAAAAAUGCAGGGGUCUAAAACUGAGCGGAUAACCUCUCUAUGG
RNA 2: GGGAAUGGAUCCACAUCUACGAAUUCGUACCAUAGAGAGGUUAAGUCCGCUCACCGAGAUCGGAAGAGCACACGU
B8: target 1 C6U,G13U (mixed)
RNA 1: CACCCGUGCAAAAAUGCAGGGGUCUAAAACUGAGCGGAUAACCUCUCUAUGG
RNA 2: GGGAAUGGAUCCACAUCUACGAAUUCGUACCAUAGAGAUGUUAUCUGCUCACCGAGAUCGGAAGAGCACACGU
B9: target 1 insC 3' of 20,insC 3' of 3 (mixed)
RNA 1: CACCCGUGCAAAAAUGCAGGGGUCUAAAACUGAGCGGAUAACCUCUCUAUGG
RNA 2: GGGAAUGGAUCCACAUCUACGAAUUCGUACCACUAGAGAGGUUAUCCGCUCCACCGAGAUCGGAAGAGCACACGU
B10: target 1 insA 3' of 4,insA 3' of 4 (mixed)
RNA 1: CACCCGUGCAAAAAUGCAGGGGUCUAAAACUGAGCGGAUAACCUCUCUAUGG
RNA 2: GGGAAUGGAUCCACAUCUACGAAUUCGUACCAUAGAGAGGUUAUCCGCAAUCACCGAGAUCGGAAGAGCACACGU
B11: target 1 C7U,G13C (mixed)
RNA 1: CACCCGUGCAAAAAUGCAGGGGUCUAAAACUGAGCGGAUAACCUCUCUAUGG
RNA 2: GGGAAUGGAUCCACAUCUACGAAUUCGUACCAUAGAGACGUUAUUCGCUCACCGAGAUCGGAAGAGCACACGU
B12: target 1 insG 3' of 2,insA 3' of 2 (mixed)
RNA 1: CACCCGUGCAAAAAUGCAGGGGUCUAAAACUGAGCGGAUAACCUCUCUAUGG
RNA 2: GGGAAUGGAUCCACAUCUACGAAUUCGUACCAUAGAGAGGUUAUCCGCUCGAACCGAGAUCGGAAGAGCACACGU
B13: target 1 insG 3' of 14,insC 3' of 14 (mixed)
RNA 1: CACCCGUGCAAAAAUGCAGGGGUCUAAAACUGAGCGGAUAACCUCUCUAUGG
RNA 2: GGGAAUGGAUCCACAUCUACGAAUUCGUACCAUAGAGAGCGGUUAUCCGCUCACCGAGAUCGGAAGAGCACACGU
B14: target 1 del17,del19 (mixed)
RNA 1: CACCCGUGCAAAAAUGCAGGGGUCUAAAACUGAGCGGAUAACCUCUCUAUGG
RNA 2: GGGAAUGGAUCCACAUCUACGAAUUCGUACCAAAGAGGUUAUCCGCUCACCGAGAUCGGAAGAGCACACGU
B15: target 1 del20,del22 (mixed)
RNA 1: CACCCGUGCAAAAAUGCAGGGGUCUAAAACUGAGCGGAUAACCUCUCUAUGG
RNA 2: GGGAAUGGAUCCACAUCUACGAAUUCGUACUAGAGAGGUUAUCCGCUCACCGAGAUCGGAAGAGCACACGU
B16: target 1 insG 3' of 11,insG 3' of 6 (mixed)
RNA 1: CACCCGUGCAAAAAUGCAGGGGUCUAAAACUGAGCGGAUAACCUCUCUAUGG
RNA 2: GGGAAUGGAUCCACAUCUACGAAUUCGUACCAUAGAGAGGUGUAUCCGGCUCACCGAGAUCGGAAGAGCACACGU
B17: target 1 G5C,G12A (mixed)
RNA 1: CACCCGUGCAAAAAUGCAGGGGUCUAAAACUGAGCGGAUAACCUCUCUAUGG
RNA 2: GGGAAUGGAUCCACAUCUACGAAUUCGUACCAUAGAGAGAUUAUCCCCUCACCGAGAUCGGAAGAGCACACGU
B18: target 1 insC 3' of 8,insA 3' of 5 (mixed)
RNA 1: CACCCGUGCAAAAAUGCAGGGGUCUAAAACUGAGCGGAUAACCUCUCUAUGG
RNA 2: GGGAAUGGAUCCACAUCUACGAAUUCGUACCAUAGAGAGGUUAUCCCGACUCACCGAGAUCGGAAGAGCACACGU
B19: target 1 C6G,C22G (mixed)
RNA 1: CACCCGUGCAAAAAUGCAGGGGUCUAAAACUGAGCGGAUAACCUCUCUAUGG
RNA 2: GGGAAUGGAUCCACAUCUACGAAUUCGUAGCAUAGAGAGGUUAUCGGCUCACCGAGAUCGGAAGAGCACACGU
B20: target 1 insG 3' of 18,insU 3' of 4 (mixed)
RNA 1: CACCCGUGCAAAAAUGCAGGGGUCUAAAACUGAGCGGAUAACCUCUCUAUGG
RNA 2: GGGAAUGGAUCCACAUCUACGAAUUCGUACCAUAGGAGAGGUUAUCCGCUUCACCGAGAUCGGAAGAGCACACGU
B21: target 1 del20 (mixed)
RNA 1: CACCCGUGCAAAAAUGCAGGGGUCUAAAACUGAGCGGAUAACCUCUCUAUGG
RNA 2: GGGAAUGGAUCCACAUCUACGAAUUCGUACCUAGAGAGGUUAUCCGCUCACCGAGAUCGGAAGAGCACACGU
B22: target 1 insA 3' of 10,insG 3' of 7 (mixed)
RNA 1: CACCCGUGCAAAAAUGCAGGGGUCUAAAACUGAGCGGAUAACCUCUCUAUGG
RNA 2: GGGAAUGGAUCCACAUCUACGAAUUCGUACCAUAGAGAGGUUAAUCGCGCUCACCGAGAUCGGAAGAGCACACGU
B23: target 1 insA 3' of 17,insU 3' of 2 (mixed)
RNA 1: CACCCGUGCAAAAAUGCAGGGGUCUAAAACUGAGCGGAUAACCUCUCUAUGG
RNA 2: GGGAAUGGAUCCACAUCUACGAAUUCGUACCAUAGAAGAGGUUAUCCGCUCUACCGAGAUCGGAAGAGCACACGU
B24: target 1 insG 3' of 18,insA 3' of 10 (mixed)
RNA 1: CACCCGUGCAAAAAUGCAGGGGUCUAAAACUGAGCGGAUAACCUCUCUAUGG
RNA 2: GGGAAUGGAUCCACAUCUACGAAUUCGUACCAUAGGAGAGGUUAAUCCGCUCACCGAGAUCGGAAGAGCACACGU
B25: target 1 C2A,C4A (mixed)
RNA 1: CACCCGUGCAAAAAUGCAGGGGUCUAAAACUGAGCGGAUAACCUCUCUAUGG
RNA 2: GGGAAUGGAUCCACAUCUACGAAUUCGUACCAUAGAGAGGUUAUCCGAUAACCGAGAUCGGAAGAGCACACGU
B26: target 1 insG 3' of 6,insC 3' of 1 (mixed)
RNA 1: CACCCGUGCAAAAAUGCAGGGGUCUAAAACUGAGCGGAUAACCUCUCUAUGG
RNA 2: GGGAAUGGAUCCACAUCUACGAAUUCGUACCAUAGAGAGGUUAUCCGGCUCACCCGAGAUCGGAAGAGCACACGU
B27: target 1 insU 3' of 20,insC 3' of 12 (mixed)
RNA 1: CACCCGUGCAAAAAUGCAGGGGUCUAAAACUGAGCGGAUAACCUCUCUAUGG
RNA 2: GGGAAUGGAUCCACAUCUACGAAUUCGUACCAUUAGAGAGGCUUAUCCGCUCACCGAGAUCGGAAGAGCACACGU
B28: target 1 insG 3' of 11,insU 3' of 9 (mixed)
RNA 1: CACCCGUGCAAAAAUGCAGGGGUCUAAAACUGAGCGGAUAACCUCUCUAUGG
RNA 2: GGGAAUGGAUCCACAUCUACGAAUUCGUACCAUAGAGAGGUGUAUUCCGCUCACCGAGAUCGGAAGAGCACACGU

Target: T1, EsCas13d, nuclease-dead
Assay: crRNA (strand 1, pre-loaded); Mg2+; 40 mM Tris-HCl pH 7.5, 150 mM NaCl, 6 mM MgCl2, 1 mM DTT, 0.1% Tween-20, 0.2 mg/ml BSA; 25 C; 10 min per concentration, then washed
Conditions: tags: His6-TwinStrep-SUMO cleaved; N-terminal SNAP kept (SNAP-Surface 488); label: 3' end held by stalled T7 RNA polymerase

B1 and B2 are within error of each other in Kd: 6.5 ± 0.4 nM for the first, 7 ± 0.4 nM for the second.

Going from B3 to B4, the Kd falls from 20.2 ± 3.1 nM to 6.54 ± 0.23 nM (3.1-fold).

First: B5
Second: B6
The Kd of the first is 3-fold higher: 29.9 ± 2.6 nM for the first, 9.9 ± 0.9 nM for the second. The second binds more tightly here.

First: B7
Second: B8
The Kd of the first is 2.1-fold lower: 18.3 ± 0.8 nM for the first, 38 ± 5 nM for the second.

B9 and B10 are within 1.5-fold of each other in Kd: 8.5 ± 0.4 nM for the first, 5.91 ± 0.24 nM for the second.

First: B11
Second: B12
The Kd of the first is 7-fold higher: about 70 nM for the first, 10 ± 0.8 nM for the second. The second binds more tightly here.

B13 and B14 are within 1.5-fold of each other in Kd: 34 ± 6 nM for the first, 50 ± 5 nM for the second.

Going from B15 to B16, the Kd rises from 9 ± 1.2 nM to 39 ± 4 nM (4.3-fold).

Compared with B17, B18 is 1.5-fold higher in Kd: 8.6 ± 0.4 nM for the first, 13.2 ± 1.2 nM for the second.

Compared with B19, B20 is 1.8-fold higher in Kd: 35 ± 5 nM for the first, 63 ± 4 nM for the second. The first binds more tightly here.

Compared with B21, B22 is 2.5-fold lower in Kd: 31 ± 1.6 nM for the first, 12.4 ± 0.7 nM for the second. The second binds more tightly here.

First: B23
Second: B24
The Kd of the first is 4.2-fold lower: 15.4 ± 1.6 nM for the first, 64 ± 6 nM for the second.

B25 and B26 are within 1.5-fold of each other in Kd: 10.3 ± 0.5 nM for the first, 13.1 ± 0.9 nM for the second.

B27 and B28 are within error of each other in Kd: 37 ± 14 nM for the first, 28 ± 5 nM for the second.

— article PMC10786891, “Massively parallel profiling of RNA-targeting CRISPR-Cas13d”
